# From patent US11499162B2, “Plants having increased tolerance to herbicides” (BASF SE, priority 2016, dated 2022)
# B1: ΔS129_A130: TriA deletion variant of SEQ ID NO: 2 (protein)
# chain: MQTLSIQHGTLVTMDQYRRVLGDSWVHVQDGRIVALGVHAESVPPPADRVIDARGKVVLPGFINAHTHVNQILLRGGPSHGRQLYDWLFNVLYPGQKAMRPEDVAVAVRLYCAEAVRSGITTINDNADIYPGNIEAAMAVYGEVGVRVVYARMFFDRMDGRIQGYVDALKARSPQVELCSIMEETAVAKDRITALSDQYHGTAGGRISVWPAPAITPAVTVEGMRWAQAFARDRAVMWTLHMAESDHDERLHWMSPAEYMECYGLLDERLQVAHCVYFDRKDVRLLHRHNVKVASQVVSNAYLGSGVAPVPEMVERGMAVGIGTDDGNCNDSVNMIGDMKFMAHIHRAVHRDADVLTPEKILEMATIDGARSLGMDHEIGSIETGKRADLILLDLRHPQTTPHHHLAATIVFQAYGNEVDTVLIDGNVVMENRRLSFLPPERELAFLEEAQSRATAILQRANMVANPAWRSL
# modifications: Pseudomonas
# B2: N302E: mutated TriA variant of SEQ ID NO: 2 (protein)
# chain: MQTLSIQHGTLVTMDQYRRVLGDSWVHVQDGRIVALGVHAESVPPPADRVIDARGKVVLPGFINAHTHVNQILLRGGPSHGRQLYDWLFNVLYPGQKAMRPEDVAVAVRLYCAEAVRSGITTINDNADSAIYPGNIEAAMAVYGEVGVRVVYARMFFDRMDGRIQGYVDALKARSPQVELCSIMEETAVAKDRITALSDQYHGTAGGRISVWPAPAITPAVTVEGMRWAQAFARDRAVMWTLHMAESDHDERLHWMSPAEYMECYGLLDERLQVAHCVYFDRKDVRLLHRHNVKVASQVVSEAYLGSGVAPVPEMVERGMAVGIGTDDGNCNDSVNMIGDMKFMAHIHRAVHRDADVLTPEKILEMATIDGARSLGMDHEIGSIETGKRADLILLDLRHPQTTPHHHLAATIVFQAYGNEVDTVLIDGNVVMENRRLSFLPPERELAFLEEAQSRATAILQRANMVANPAWRSL
# modifications: Pseudomonas
# B3: Q71T: mutated TriA variant of SEQ ID NO: 2 (protein)
# chain: MQTLSIQHGTLVTMDQYRRVLGDSWVHVQDGRIVALGVHAESVPPPADRVIDARGKVVLPGFINAHTHVNTILLRGGPSHGRQLYDWLFNVLYPGQKAMRPEDVAVAVRLYCAEAVRSGITTINDNADSAIYPGNIEAAMAVYGEVGVRVVYARMFFDRMDGRIQGYVDALKARSPQVELCSIMEETAVAKDRITALSDQYHGTAGGRISVWPAPAITPAVTVEGMRWAQAFARDRAVMWTLHMAESDHDERLHWMSPAEYMECYGLLDERLQVAHCVYFDRKDVRLLHRHNVKVASQVVSNAYLGSGVAPVPEMVERGMAVGIGTDDGNCNDSVNMIGDMKFMAHIHRAVHRDADVLTPEKILEMATIDGARSLGMDHEIGSIETGKRADLILLDLRHPQTTPHHHLAATIVFQAYGNEVDTVLIDGNVVMENRRLSFLPPERELAFLEEAQSRATAILQRANMVANPAWRSL
# modifications: Pseudomonas
# B4: Y304K: mutated TriA variant of SEQ ID NO: 2 (protein)
# chain: MQTLSIQHGTLVTMDQYRRVLGDSWVHVQDGRIVALGVHAESVPPPADRVIDARGKVVLPGFINAHTHVNQILLRGGPSHGRQLYDWLFNVLYPGQKAMRPEDVAVAVRLYCAEAVRSGITTINDNADSAIYPGNIEAAMAVYGEVGVRVVYARMFFDRMDGRIQGYVDALKARSPQVELCSIMEETAVAKDRITALSDQYHGTAGGRISVWPAPAITPAVTVEGMRWAQAFARDRAVMWTLHMAESDHDERLHWMSPAEYMECYGLLDERLQVAHCVYFDRKDVRLLHRHNVKVASQVVSNAKLGSGVAPVPEMVERGMAVGIGTDDGNCNDSVNMIGDMKFMAHIHRAVHRDADVLTPEKILEMATIDGARSLGMDHEIGSIETGKRADLILLDLRHPQTTPHHHLAATIVFQAYGNEVDTVLIDGNVVMENRRLSFLPPERELAFLEEAQSRATAILQRANMVANPAWRSL
# modifications: Pseudomonas
# Assay type: biochemical
# Conditions: pH 7.2
# Protocol: EXAMPLE 3: Protein Purification. TriA and variants thereof were produced in E. coli BL21(DE3) Gold (Agilent Technologies, Germany). Therefore E. coli was transformed with appropriate pET24d N-HIS tag expression vector and chaperone plasmid pGro7 (chaperones groEL and groES). Bacterial strains were grown at 30° C. in 100 mL LB for 20 h and protein expression induced with 0.1 mM IPTG at 25° C. for 20 hs. Cells were harvested by centrifugation at 3000 rpm at 4° C. for 20 min, resuspended in Bug Buster protein extraction reagent (Novagen, Germany) according to manufactures instructions. Lysates were clarified by centrifugation. Samples of bovine serum albumin ([…]) were loaded onto each gel analyzed by densitometry to provide an internal standard. Protein determinations were verified using Coomassie protein assay dye, according to manufactures instruction (Thermo Scientific; USA). The HIS-tagged enzymes were purified by metal ion affinity chromatography using Ni-IDA 1000 kit (Macherey-Nagel, Germany) following manufactures instructions. Protein purity was accessed by SDS-PAGE using NuPAGE Novex 4-12% Bis-Tris pre-cast gels (Life Technologies; USA) stained with Coomassie Brilliant Blue (Serva, Germany). Protein concentrations were estimated by measuring absorbance at 280 nm using Lambda Bio+(Perkin Elmer, USA). EXAMPLE 4: Enzyme kinetics. Resting cell suspension containing triA gene were incubated with various azines, melamine and atrazine and the culture filtrate was analyzed by UPLC-HR-MS. Substrates were obtained either from Sigma-Aldrich or synthesized internally. Synthetic standards and enzyme reaction products were analysed by UPLC-HR-MS (Thermo/Dionex UPLC UltiMate3000 coupled to a QExactive high resolution mass spectrometer). A Waters Acquity HSS T3 column (2.1 mm; 100 mm; […]) was used with a mobile phase water/acetonitrile (0.1% formic acid) with a flow rate of […]. Enzymes were used solved 25 mM sodium phosphate buffer (pH 7.2) with substrate concentration in the range of 1 nM to 10 nM at 30° C. Over time, the original azine peak disappeared whereas the formed OH-Metabolite (reaction product) increased. The product was identified by determination of the exact formula and by analysis of the accurate MS-MS fragments. Moreover for some of the formed products authentic standards were co-eluted. Degradation in % was calculated against the cells harboring the empty vector as control.
Molecule,"Degradation in % of 6-cyclopentyl-N4-(2,3,4,5,6-pentafluorophenyl)-1,3,5-triazine-2,4-diamine [%]",Degradation in % of Melamine [%]
B1,3,0
B2,1,8
B3,0,0
B4,0,2
